Common to all, as to assay: SPR
Background: Surface plasmon resonance follows binding to a sensor surface in real time, without labels.

Test [1] deals with recombinant human FcγRIIIb (human) (UniProt O75015).
Test [2] addresses recombinant human FcγRIa (human) (UniProt P12314).
The target in test [3] is recombinant human FcγRIIb (human) (UniProt P31994).
The target in test [4] is recombinant human FcγRIIIa V158 (human).
Test [5] deals with recombinant human FcRn (human) (UniProt P55899).
The target in test [6] is recombinant human FcγRIIIa F158 (human) (UniProt P08637).

pKd: −log10 of the molar value.

2 substances from article PMC3775154 can be followed below.

Sequence of UniProt O75015 (O75015 17-200): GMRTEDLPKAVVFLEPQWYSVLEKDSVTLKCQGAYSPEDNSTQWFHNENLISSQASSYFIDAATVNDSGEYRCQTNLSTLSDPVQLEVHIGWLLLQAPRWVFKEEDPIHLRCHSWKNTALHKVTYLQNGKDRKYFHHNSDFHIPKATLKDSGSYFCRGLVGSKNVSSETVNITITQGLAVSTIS
Sequence of UniProt P12314 (P12314 16-374): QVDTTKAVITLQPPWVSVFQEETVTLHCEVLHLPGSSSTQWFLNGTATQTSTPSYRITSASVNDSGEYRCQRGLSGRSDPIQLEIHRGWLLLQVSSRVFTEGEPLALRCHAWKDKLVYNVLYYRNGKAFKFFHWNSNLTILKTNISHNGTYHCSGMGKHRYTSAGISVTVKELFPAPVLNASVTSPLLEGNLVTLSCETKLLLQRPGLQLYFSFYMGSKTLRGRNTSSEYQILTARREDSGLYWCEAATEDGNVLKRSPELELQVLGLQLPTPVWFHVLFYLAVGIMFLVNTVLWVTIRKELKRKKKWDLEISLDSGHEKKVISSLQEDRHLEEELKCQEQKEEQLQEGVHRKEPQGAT
Sequence of UniProt P31994 (P31994 43-310): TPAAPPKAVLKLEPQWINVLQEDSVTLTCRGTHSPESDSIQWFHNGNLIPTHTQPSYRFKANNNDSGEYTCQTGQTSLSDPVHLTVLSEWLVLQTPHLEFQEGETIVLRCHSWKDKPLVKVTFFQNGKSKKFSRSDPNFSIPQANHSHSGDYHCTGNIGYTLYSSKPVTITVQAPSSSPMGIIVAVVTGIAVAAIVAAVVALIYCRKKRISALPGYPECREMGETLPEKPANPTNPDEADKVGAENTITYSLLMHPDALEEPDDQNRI
Sequence of recombinant human FcγRIIIa V158 (human) (P08637 17-208): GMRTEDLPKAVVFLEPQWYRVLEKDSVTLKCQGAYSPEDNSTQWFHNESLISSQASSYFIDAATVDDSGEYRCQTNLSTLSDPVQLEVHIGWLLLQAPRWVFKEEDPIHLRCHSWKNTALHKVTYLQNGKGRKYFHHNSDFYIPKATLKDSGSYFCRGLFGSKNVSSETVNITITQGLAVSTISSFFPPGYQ
Sequence of UniProt P55899 (P55899 24-297): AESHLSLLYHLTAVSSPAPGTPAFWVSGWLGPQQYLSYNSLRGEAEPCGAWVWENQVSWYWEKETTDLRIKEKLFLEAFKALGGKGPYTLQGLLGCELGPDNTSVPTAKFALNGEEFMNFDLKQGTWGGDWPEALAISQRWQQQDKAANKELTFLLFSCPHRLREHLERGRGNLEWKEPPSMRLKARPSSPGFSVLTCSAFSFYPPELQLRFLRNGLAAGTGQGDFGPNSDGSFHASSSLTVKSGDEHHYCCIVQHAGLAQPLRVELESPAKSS

Regarding originator rituximab (antibody), the pKd is 4.93 to 5.04 in test [1]; 7.93 to 7.98 in test [2]; 4.89 to 4.94 in test [3]; 5.31 to 5.46 in test [4]; 6.24 to 6.26 in test [5]; 4.99 to 5.13 in test [6].

For “proposed biosimilar rituximab GP2013 (antibody)”, the pKd in test [1] is 4.91 to 5.00; in test [2] it was 7.91 to 7.96; in test [3] it was 4.90 to 4.96; in test [4], 5.30 to 5.38; in test [5] it was 6.24 to 6.27; in test [6], 4.96 to 5.07.

One may read the pKd as the negative decadic logarithm of the Kd, by convention in mol/L.
